In general, Kd refers to the concentration at which binding is half-saturated. The low end stands for higher affinity, the high end for lower affinity. As a reminder, the IC50 is the concentration that gives 50% inhibition. Higher therefore signals weaker potency.

“And” between values parts separate entries of the source, which are not always exact repeats. Equal values may be shown once.

The values that follow come from US20160215065A1 (Genentech, published 2016).

One assay deals with T1, mouse zymogen NSP4 (mZ) (mouse, UniProt Q14B24 36-284).
T1 construct: mature; Expressed in CHO cells; also called mZ-NSP4; mZ (NSP4); not shown: N-terminal FLAG tag cleavable by enteropeptidase (cleavage after Asp-Asp-Asp-Asp-Lys)
T1 sequence (looked up): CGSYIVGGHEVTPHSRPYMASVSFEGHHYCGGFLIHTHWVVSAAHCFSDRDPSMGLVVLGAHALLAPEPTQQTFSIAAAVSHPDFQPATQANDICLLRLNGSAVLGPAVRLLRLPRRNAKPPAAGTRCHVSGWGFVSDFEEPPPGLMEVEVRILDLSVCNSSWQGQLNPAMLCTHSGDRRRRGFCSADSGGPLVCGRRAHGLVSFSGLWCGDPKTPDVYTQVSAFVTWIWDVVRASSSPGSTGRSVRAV
Description: BLI affinity class in summary table.

Another assay deals with T2, human active NSP4 (hA) (human, UniProt Q6UWY2 34-283).
T2 construct: range 34-283; For crystals partly deglycosylated with Endo F3 (FFR-cmk complex) or fully glycosylated (VLK-cmk complex); also called hA-NSP4; hA (NSP4)
T2 sequence (looked up): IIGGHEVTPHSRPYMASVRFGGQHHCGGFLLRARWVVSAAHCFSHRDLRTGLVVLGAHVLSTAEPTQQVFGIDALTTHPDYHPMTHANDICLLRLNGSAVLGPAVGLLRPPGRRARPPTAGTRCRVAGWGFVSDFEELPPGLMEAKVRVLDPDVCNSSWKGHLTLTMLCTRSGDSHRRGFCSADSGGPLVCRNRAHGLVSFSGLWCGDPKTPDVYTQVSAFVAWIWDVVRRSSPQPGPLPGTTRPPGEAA
Put plainly: BLI affinity class in summary table.

Another assay addresses T3, mouse active NSP4 (mA) (mouse, UniProt Q14B24 36-284).
T3 construct: mature; also called mA-NSP4; mA (NSP4)
T3 sequence (looked up): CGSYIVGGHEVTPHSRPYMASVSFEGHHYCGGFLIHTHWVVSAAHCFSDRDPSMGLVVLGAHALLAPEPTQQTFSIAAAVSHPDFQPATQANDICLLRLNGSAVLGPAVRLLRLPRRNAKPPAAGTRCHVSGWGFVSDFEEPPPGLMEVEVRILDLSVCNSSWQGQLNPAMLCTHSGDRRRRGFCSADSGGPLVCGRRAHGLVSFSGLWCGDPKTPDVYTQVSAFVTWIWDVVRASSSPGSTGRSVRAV
Put plainly: BLI affinity class in summary table.

In assay [1] the target is human zymogen NSP4 (hZ) (human) (UniProt Q6UWY2). Description: BLI affinity class in summary table.
The target is the same in assay [2]. Put plainly: competition phage ELISA (phage IC50); soluble hZ-NSP4 against plate-coated NSP4. In general terms: In an ELISA, binding on a coated surface is turned into a signal by an enzyme label.

B1: anti-NSP4 antibody 2-4 (antibody, human IgG1, V domains shown)
VH: EVQLVESGGGLVQPGGSLRLSCAASGFTFSDYWISWVRQAPGKGLEWVAGISPNNGDTYYADSVKGRFTISADTSKNTAYLQMNSLRAEDTAVYYCAREDDDERDYAMDYWGQGTLVTVSS
VL: DIQMTQSPSSLSASVGDRVTITCRASQDVSTAVAWYQQKPGKAPKLLIYSASFLYSGVPSRFSGSGSGTDFTLTISSLQPEDFATYYCQQSYTTPPTFGQGTKVEIKR
notes: also called clone 2-4
As to B1, the Kd (in the assay with mouse zymogen NSP4 (mZ); with human active NSP4 (hA); with mouse active NSP4 (mA); in assay [1]) was less than 50 nM in each case. Moreover, in assay [2], the concentration for half-maximal inhibition (IC50) turned out to be 2.3 nM.

B2: anti-NSP4 antibody 1-1 (antibody, human IgG1, V domains shown)
VH: EVQLVESGGGLVQPGGSLRLSCAASGFTFSGSWISWVRQAPGKGLEWVGTISPYNGSTYYADSVKGRFTISADTSKNTAYLQMNSLRAEDTAVYYCARVLRPKVYASVMDYWGQGTLVTVSS
VL: DIQMTQSPSSLSASVGDRVTITCRASQDVSTAVAWYQQKPGKAPKLLIYSASFLYSGVPSRFSGSGSGTDFTLTISSLQPEDFATYYCQQSYTTPPTFGQGTKVEIKR
As to B2, in assay [1], the Kd was > 50 nM and < 1000 nM. This molecule also showed a concentration for half-maximal inhibition (IC50) in assay [2] of 155 nM.

B3: anti-NSP4 antibody 4-2 (antibody, human IgG1, V domains shown)
VH: EVQLVESGGGLVQPGGSLRLSCAASGFTFSGSDISWVRQAPGKGLEWVGEIYPSNGDTYYADSVKGRFTISADTSKNTAYLQMNSLRAEDTAVYYCARSVRPSWWAMDYWGQGTLVTVSS
VL: DIQMTQSPSSLSASVGDRVTITCRASQDVSTAVAWYQQKPGKAPKLLIYSASFLYSGVPSRFSGSGSGTDFTLTISSLQPEDFATYYCQQSYTTPPTFGQGTKVEIKR
notes: also called clone 4-2
Consider B3, for which the dissociation constant Kd with human active NSP4 (hA) is less than 50 nM; in assay [1], > 50 nM and < 1000 nM.

B4: anti-NSP4 antibody 1-3 (antibody, human IgG1, V domains shown)
VH: EVQLVESGGGLVQPGGSLRLSCAASGFTFSDNWISWVRQAPGKGLEWVGYIYPASGYTDYADSVKGRFTISADTSKNTAYLQMNSLRAEDTAVYYCASDSPHAYWYAMDYWGQGTLVTVSS
VL: DIQMTQSPSSLSASVGDRVTITCRASQDVSTAVAWYQQKPGKAPKLLIYSASFLYSGVPSRFSGSGSGTDFTLTISSLQPEDFATYYCQQSYTTPPTFGQGTKVEIKR
Turning to B4, the dissociation constant Kd in assay [1] is > 50 nM and < 1000 nM. Also, the IC50 in assay [2] turned out to be 52 nM.

B5: anti-NSP4 antibody 2-3 (antibody, human IgG1, V domains shown)
VH: EVQLVESGGGLVQPGGSLRLSCAASGFTFTDSDISWVRQAPGKGLEWVAWISPSDGATDYADSVKGRFTISADTSKNTAYLQMNSLRAEDTAVYYCAHEASDDDYAIDYWGQGTLVTVSS
VL: DIQMTQSPSSLSASVGDRVTITCRASQDVSTAVAWYQQKPGKAPKLLIYSASFLYSGVPSRFSGSGSGTDFTLTISSLQPEDFATYYCQQSYTTPPTFGQGTKVEIKR
notes: also called clone 2-3
As for B5, the Kd (in the assay with mouse zymogen NSP4 (mZ); with human active NSP4 (hA); in the assay with mouse active NSP4 (mA); in assay [1]) was less than 50 nM throughout. Also, the 50% inhibitory concentration (IC50) in assay [2] stood at 3.07 nM.

B6: anti-NSP4 antibody 1-5 (antibody, human IgG1, V domains shown)
VH: EVQLVESGGGLVQPGGSLRLSCAASGFTFTNNSISWVRQAPGKGLEWVGAISPNNGSTYYADSVKGRFTISADTSKNTAYLQMNSLRAEDTAVYYCARNAWHYSWVGVMDYWGQGTLVTVSS
VL: DIQMTQSPSSLSASVGDRVTITCRASQDVSTAVAWYQQKPGKAPKLLIYSASFLYSGVPSRFSGSGSGTDFTLTISSLQPEDFATYYCQQSYTTPPTFGQGTKVEIKR
With B6, the Kd in assay [1] is > 50 nM and < 1000 nM. In assay [2], the IC50 came to 114 nM.

B7: anti-NSP4 antibody 3-2 (antibody, human IgG1, V domains shown)
VH: EVQLVESGGGLVQPGGSLRLSCAASGFTFSDYSISWVRQAPGKGLEWVGEINPAGGATYYADSVKGRFTISADTSKNTAYLQMNSLRAEDTAVYYCARGDFPFWSDAYYVMDYWGQGTLVTVSS
VL: DIQMTQSPSSLSASVGDRVTITCRASQDVSTAVAWYQQKPGKAPKLLIYSASFLYSGVPSRFSGSGSGTDFTLTISSLQPEDFATYYCQQSYTTPPTFGQGTKVEIKR
notes: also called Ab 3-2; clone 3-2
As to B7, the Kd with mouse zymogen NSP4 (mZ) and with mouse active NSP4 (mA) was less than 50 nM each time.

B8: anti-NSP4 antibody 2-2 (antibody, human IgG1, V domains shown)
VH: EVQLVESGGGLVQPGGSLRLSCAASGFTFSSTAISWVRQAPGKGLEWVGEIYPSDGYTDYADSVKGRFTISADTSKNTAYLQMNSLRAEDTAVYYCARVKWAVSSLGVMDYWGQGTLVTVSS
VL: DIQMTQSPSSLSASVGDRVTITCRASQDVSTAVAWYQQKPGKAPKLLIYSASFLYSGVPSRFSGSGSGTDFTLTISSLQPEDFATYYCQQSYTTPPTFGQGTKVEIKR
notes: also called clone 2-2
For B8, the Kd (in the assay with mouse zymogen NSP4 (mZ); in assay [1]) was less than 50 nM throughout. Besides, the 50% inhibitory concentration (IC50) in assay [2] worked out at 10.4 nM.

B9: anti-NSP4 antibody 2-1 (antibody, human IgG1, V domains shown)
VH: EVQLVESGGGLVQPGGSLRLSCAASGFTFTDYSIHWVRQAPGKGLEWVAEIYPYSGDTYYADSVKGRFTISADTSKNTAYLQMNSLRAEDTAVYYCARDGDGWFDWAMDYWGQGTLVTVSS
VL: DIQMTQSPSSLSASVGDRVTITCRASQDVSTAVAWYQQKPGKAPKLLIYSASFLYSGVPSRFSGSGSGTDFTLTISSLQPEDFATYYCQQSYTTPPTFGQGTKVEIKR
notes: also called clone 2-1
As to B9, the Kd (with mouse zymogen NSP4 (mZ); with human active NSP4 (hA); with mouse active NSP4 (mA); in assay [1]) was less than 50 nM in each case. In assay [2], the IC50 worked out at 7.62 nM.

B10: anti-NSP4 antibody 2-5 (antibody, human IgG1, V domains shown)
VH: EVQLVESGGGLVQPGGSLRLSCAASGFTFTGYGISWVRQAPGKGLEWVGWIYPASGATYYADSVKGRFTISADTSKNTAYLQMNSLRAEDTAVYYCARHRAFDWYPYYIGSSVMDYWGQGTLVTVSS
VL: DIQMTQSPSSLSASVGDRVTITCRASQDVSTAVAWYQQKPGKAPKLLIYSASFLYSGVPSRFSGSGSGTDFTLTISSLQPEDFATYYCQQSYTTPPTFGQGTKVEIKR
notes: also called clone 2-5
B10: the dissociation constant (Kd) (with mouse zymogen NSP4 (mZ); in assay [1]) was less than 50 nM throughout. This molecule yielded an IC50 in assay [2] of 22 nM.

B11: anti-NSP4 antibody 4-4 (antibody, human IgG1, V domains shown)
VH: EVQLVESGGGLVQPGGSLRLSCAASGFTFTSTSIHWVRQAPGKGLEWVAEITPHGGYTNYADSVKGRFTISADTSKNTAYLQMNSLRAEDTAVYYCARGRTKWGWLYGMDYWGQGTLVTVSS
VL: DIQMTQSPSSLSASVGDRVTITCRASQDVSTAVAWYQQKPGKAPKLLIYSASFLYSGVPSRFSGSGSGTDFTLTISSLQPEDFATYYCQQSYTTPPTFGQGTKVEIKR
notes: also called clone 4-4
As for B11, the equilibrium dissociation constant (Kd) is less than 50 nM in the assay with human active NSP4 (hA); > 50 nM and < 1000 nM in assay [1].

B12: anti-NSP4 antibody 1-2 (antibody, human IgG1, V domains shown)
VH: EVQLVESGGGLVQPGGSLRLSCAASGFTFSGYSIHWVRQAPGKGLEWVAGISPTNGYTDYADSVKGRFTISADTSKNTAYLQMNSLRAEDTAVYYCARLVFYRGVMDYWGQGTLVTVSS
VL: DIQMTQSPSSLSASVGDRVTITCRASQDVSTAVAWYQQKPGKAPKLLIYSASFLYSGVPSRFSGSGSGTDFTLTISSLQPEDFATYYCQQSYTTPPTFGQGTKVEIKR
B12 registered a Kd in assay [1] of less than 50 nM. This molecule also registered an IC50 in assay [2] of 22.1 nM.

B13: anti-NSP4 antibody 3-5 (antibody, human IgG1, V domains shown)
VH: EVQLVESGGGLVQPGGSLRLSCAASGFTFSDNDISWVRQAPGKGLEWVGSISPDNGDTNYADSVKGRFTISADTSKNTAYLQMNSLRAEDTAVYYCARDDVPAVFTSAMDYWGQGTLVTVSS
VL: DIQMTQSPSSLSASVGDRVTITCRASQDVSTAVAWYQQKPGKAPKLLIYSASFLYSGVPSRFSGSGSGTDFTLTISSLQPEDFATYYCQQSYTTPPTFGQGTKVEIKR
notes: also called Ab 3-5; Ab35
For the molecule B13, the Kd (with mouse zymogen NSP4 (mZ); with human active NSP4 (hA); with mouse active NSP4 (mA); in assay [1]) was less than 50 nM in each case.
